Substrate in this data set: CC(C)=CCC/C(C)=C/CC/C(C)=C/CO[P@@](=O)(O)OP(=O)(O)O
Put plainly: purified protein. It is filed as biochemical, Streptomyces avermitilis. Conditions: MgCl2; labelled compound ([1-3H]FPP).

Here are results for 1 protein from PMC2904616.

B1: SAV_76 (avermitilol synthase) (Streptomyces avermitilis MA-4680 = NBRC 14893) (protein)
chain: MPQDIDFGLPAPAGISPGLEATRRHNLGWVRRLGLVGDGPSLAWYTSWDMPRLAACGFPHARGAALDLCADAMAFFFVFDDQFDGPLGRDPARAARVCRRLTGIVHGAGPGPGADACSAAFADVWARSTDGAHPGWVARTAHEWEYYFAAQAHEAINRLRGTPGDMESYLQVRRGIAGTDLPLSLGERAAGITVPAAAFHSPQLRIMREAAIDVTLMCNDVYSLEKEEARGDMDNLVLVIEHARRCTRDEAVTAARGEVARRVIRFEQLAREVPALCAQLGLSAVERAHVDTYLGVMEAWMSGYHAWQTQTRRYTGAPHVLPSTGPGYFDEVLPT
By Km is commonly meant the concentration of substrate that gives half-maximal velocity. A word on the kcat: it is the maximal rate divided by the concentration of active sites. Consider B1, for which the Km was found to be 1.06 ± 0.11 µM and the turnover number (kcat) worked out at 0.040 ± 0.001 s⁻¹.
